This assay addresses Purified LDLR ectodomain (UniProt P01130). The assay can be described thus: SPR; BIAcore 3000; LDLR ectodomain immobilised on a CM5 chip by amine coupling (target 1000 RU); lipoprotein fractions injected at 5 nM apoB in HBS-N pH 7.4 (0.01 M HEPES, 0.15 M NaCl) with 0.5% BSA and 1 mM calcium chloride; 25 °C, 30 μl/min for 3 min; fitted with the two-state binding model (A + B ↔ AB ↔ AB*). A general note: Surface plasmon resonance follows binding to a sensor surface in real time, without labels.

Sequence of Purified LDLR ectodomain (P01130 22-788): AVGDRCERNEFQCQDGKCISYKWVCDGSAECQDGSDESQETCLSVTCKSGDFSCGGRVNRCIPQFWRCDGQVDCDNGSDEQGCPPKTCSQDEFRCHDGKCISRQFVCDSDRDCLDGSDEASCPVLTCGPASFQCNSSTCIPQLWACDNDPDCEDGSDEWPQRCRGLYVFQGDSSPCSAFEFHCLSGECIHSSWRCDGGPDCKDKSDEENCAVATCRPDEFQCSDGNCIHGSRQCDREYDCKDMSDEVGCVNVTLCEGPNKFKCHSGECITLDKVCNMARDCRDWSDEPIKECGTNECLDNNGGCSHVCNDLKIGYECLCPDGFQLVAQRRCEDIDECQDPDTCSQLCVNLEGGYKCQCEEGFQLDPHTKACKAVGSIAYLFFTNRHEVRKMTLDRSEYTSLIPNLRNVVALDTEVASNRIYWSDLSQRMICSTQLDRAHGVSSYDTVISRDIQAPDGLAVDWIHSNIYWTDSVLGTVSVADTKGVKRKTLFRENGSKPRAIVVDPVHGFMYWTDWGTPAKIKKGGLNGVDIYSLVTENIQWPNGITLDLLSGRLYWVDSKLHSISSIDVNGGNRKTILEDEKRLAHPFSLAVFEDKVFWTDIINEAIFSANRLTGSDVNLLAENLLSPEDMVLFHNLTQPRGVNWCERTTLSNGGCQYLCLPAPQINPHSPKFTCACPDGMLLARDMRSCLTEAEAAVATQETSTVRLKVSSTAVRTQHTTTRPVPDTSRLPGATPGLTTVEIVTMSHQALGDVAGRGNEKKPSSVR

As for “VLDL1-rich TRL fraction (Sf 60-400) isolated from fasting plasma of APOE3/E4 subjects (from UniProt P02649 19-317; P02649 19-317) (complex)”, the K1 (two-state, step 1) turned out to be 1.9e+08 M⁻¹; the K2 (two-state, step 2) amounted to 17.3; the Ka was found to be 3.3e+09 M⁻¹; the ka1 (two-state, step 1) came to 930000 M⁻¹ s⁻¹. The ka2 (two-state, step 2) worked out at 0.017 s⁻¹; the kd1 (two-state, step 1) is 0.0052 s⁻¹; the kd2 (two-state, step 2) stood at 0.00097 s⁻¹.

With “LDL (density 1.019-1.063 g/ml) isolated from fasting APOE3/E4 subjects (from UniProt P02649 19-317; P02649 19-317) (complex)”, the K1 (two-state, step 1) was 1.4e+08 M⁻¹; the K2 (two-state, step 2) turned out to be 1.7; the Ka came to 5e+08 M⁻¹; the ka1 (two-state, step 1) amounted to 1.45e+06 M⁻¹ s⁻¹. In addition, the ka2 (two-state, step 2) was determined as 0.006 s⁻¹; the kd1 (two-state, step 1) was determined as 0.0127 s⁻¹; the kd2 (two-state, step 2) came out at 0.00287 s⁻¹.

The values are drawn from publication PMC5343425.
